Measured values from the supplement of paper PMC12764529.
± gives the half width of the 95% confidence interval.

Experiment: folding stability dG unfold (combined trypsin and chymotrypsin); higher = more stable
Procedure, shortened: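 Unfolding free energy was derived, per protease or combined, against a sequence-predicted unfolded-state K50 and a shared folded-state K50, starting from K50 inferred by Bayesian fitting of sequencing counts. Digestion with trypsin and chymotrypsin was carried out on designed mini-proteins under 80 residues without cysteine in a PA-tagged cDNA display construct. Only designs with AlphaFold2 dimer inter-PAE above 15 were kept.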

Sequence | folding stability dG unfold
SAGGSAMKIEEEEVEVPLSDEELEALKKNPGKTVKVKVIKIEIEMPEEEKKRLAKELEEKFNIKIESAGGSA [r15_347_TrROS_Hall] | -0.609 ± 1.13 kJ/mol
SAGGGMEEVAKKLGVPEDARLEVLKVERYYYTREVRDPLFEEGKPVGEKIIPRPYYSEKVDYKLFDKPSAGG [r13_482_JUSTAS] | < -4.18 kJ/mol
SAGGSAGGSEKLEIVKAFVFENEVILIVKKEKEYYVLKLKFKDGKIESLEFIGPVPENDPSLGSAGGSAGGS [r12_154_TrMRF] | 22.1 ± 2.01 kJ/mol
SAPVRTVTLNVPVERDAAGNLVPVSPEEIVAELEKEGYPREEIEVKNVTETTIPVTIEVDLVNGKMRVLGSA [r9_225_JUSTAS] | < -4.18 kJ/mol
SAGATESETFALPGGEEVTVTTTYTPLPGDALRTTVTTWTTTLGPSGPAVTTATTTTTYPPELAAAGASAGG [r19_63_JUSTAS] | -3.38 ± 1 kJ/mol
SAGRIKSIQINPYENPNGQYPITVRVRWPGNGKERDRNFPMSPNDARNQAKELAKELPGKPLEIDEITSAGG [r19_317_TrROS] | -3.94 ± 0.795 kJ/mol
SAGGSAGGSSMEVVTPIERPVDVTSPENGEVVKVRVKTLVGKDPNAWTTETTLTLPDGTPVALSAGGSAGGS [r12_283_JUSTAS] | 1.41 ± 0.837 kJ/mol
SAGGSALKVKSVHQNPDDNYYMITVTIPGPDKAPREIMFPSPEDLEDKLDNLPPGIESVEIHPMKPSAGGSA [r15_589_TrROS] | < -4.18 kJ/mol
SAGGSAGGSAGGMAVVVDSPEEAEEVIEELERSFPALGAKVVVPRVQVGDKLVLPLGLELSAGGSAGGSAGG [r7_588_TrMRF] | -2.1 ± 0.628 kJ/mol
SAGGSAGGSAMKLLETKVSRSLVPETGVVVTPVTTTTLGPGGKREVIEETEVRVLPPDAPPPSAGGSAGGSA [r18_95_JUSTAS] | < -4.18 kJ/mol
SAGGSGSIVIKSIEPRLRLERLPNGELREVKEVEVDIEVEVDPETAPEEEIEAVREEAEKLAEELSSAGGSA [r2_40_JUSTAS] | 0.603 ± 0.879 kJ/mol
SAGGSAGGSAGPRRFMFQIPADEVKLEFPGGAKVTDVEEDPDGYRRVMIEIPPGADPELKSAGGSAGGSAGG [r17_48_TrROS] | -0.538 ± 0.837 kJ/mol
SAGGSAGGSAGGLLRAPDGSTAIVVRDASPETVARALHELNPNAVIVVAPIPNVAVIYLDSAGGSAGGSAGG [r7_370_TrMRF] | -2.41 ± 2.13 kJ/mol
SALDPAAGTVTATVTRPVTLPDGRTVPVTRPVRVPVTYDVVVRDPETGEVVRAADYDPETGRLRDASAASAG [r14_122_TrMRF] | < -4.18 kJ/mol
SAGKVLEELGYELVEEKEEEIGDVKIITATFPVGESPVVVTAEVTEKKEDDKPIVKVKVTVTPLPPEAPSAG [r5_516_JUSTAS] | 2.42 ± 2.13 kJ/mol
SAGGSAGGSAAPDLVTETETRTHPETGLVITRERVTLPSTGTTEERTVVTDPETGVTTTEKSSAGGSAGGSA [r18_383_JUSTAS] | -0.581 ± 0.544 kJ/mol
SAGGSAGGSAGMGSTSTSTSITPTPEGRIVVDTTTTFTDPGGVPVGSTTTTTTLPPGAAASAGGSAGGSAGG [r11_898_JUSTAS] | -1.17 ± 0.669 kJ/mol
SAYYKIRWNNGREIELKDMPIEDLEKYFPGGPVEIEPVPPVPVVRIESWEQANDLAEQNPPNHTIIVMDSAG [r14_445_TrROS] | -2.65 ± 2.34 kJ/mol

Sequence | folding stability dG unfold
SAGGSAGGSAGAYSATPVEERRLPDGSTLVRERVTDPATGTPALREVLVTDEGVEERLLPSAGGSAGGSAGG [r11_991_JUSTAS] | -1.92 ± 0.418 kJ/mol
SAGGSAGGSAGGSPRHYYVEIEFPNGRKMSIPIESPEEALDYLEDHNYPIKDVELHPLKSAGGSAGGSAGGS [r4_213_TrROS] | -1.35 ± 1.72 kJ/mol
SAGGSAGGSAGGSSVYTSPSKPIAITSRTLVPESNLVRVEAVDPSGAPIEGIIPPSATLGSAGGSAGGSAGG [r7_427_JUSTAS] | < -4.18 kJ/mol
SAGGSAKTIVIPAEDLTPEEIKALAEENKDKIVIYNKKTKKVVTIEVKDGKITKVEEFPVSEEELKSAGGSA [r15_751_TrROS_Hall] | -1.07 ± 2.8 kJ/mol
SAGMPADTFIELNITITVPSEEYEADPAAVKAAADAAIAAAKAAGLPVDAATFTFERVPPVDPNNPRVGSAG [r5_979_JUSTAS] | < -4.18 kJ/mol
SAGGMTIVSSGPSIEQALQEAAEAGGDATVIYKEPESNTIITLDVKYDPAPRTITVLSETETPVPPLLSAGG [r13_309_JUSTAS] | 0.709 ± 0.418 kJ/mol
SAGDWIREAIKKAGYDNVEIEEIQPNPNGGVSIVIQPSPGMPREQQRRAQEEIVDALREESPDFKIHIHSAG [r5_101_TrROS] | 0.804 ± 1.09 kJ/mol
MTTETLEEEEIPEEGIRIETVRTTDASGKPSTETVVTYEEVPLEPENTAPPVKFDDKGKRYNPGIGLEGLDS [r1_270_JUSTAS] | < -4.18 kJ/mol
SADTLTVSDLMHKLMEEERKKNPEPWSPEDMQEWAKTAARKLADKEGIPIKDVEVEPTDGYPSITVKVPSAG [r14_147_TrROS] | < -4.18 kJ/mol
SAGGSAGGSAGGSPLTLTRTLTLTRTTTDPDVPGTTTTETRTLTLTTELTLPPLPPGTPSAGGSAGGSAGGS [r4_231_TrROS_Hall] | < -4.18 kJ/mol
TIKELAKKLGGPITVETEQYPIENPDGNPYYITDIEVQVNPNDGSLRINYEVYNPGNGKKQEEEDTIPLDDS [r1_448_TrROS] | < -4.18 kJ/mol
SAGGGSMVIPVSPEEKEAALKLLEALPSKDVKVTVTDPATGTTTTLTPEEAKKLIEATDTPLVLTLSSAGGS [r16_263_JUSTAS] | 14.3 ± 0.669 kJ/mol
SAGGSAGGSAGGGMEFSTVTVKRTLKTLGKTEVTTVPVVNPVPPPPPLGPENIARSRGVLSAGGSAGGSAGG [r7_79_JUSTAS] | < -4.18 kJ/mol
SAGGSAGGSAGMRLLTEEIVVEQFFYETGETRLTVLTKEILVVPPRPVPVPLPEGGLRLLSAGGSAGGSAGG [r11_307_JUSTAS] | 0.771 ± 0.544 kJ/mol
SAGGSAGGSAGGDEILELERIPETGELVLRRITPDGEGFRIEEEVVPVGPELAEALPEGSAGGSAGGSAGGS [r10_291_TrMRF] | < -4.18 kJ/mol
SAGRRKVEIPIPFDDPGQAMSADELADELRELGLKPGHEPKVEPHPDGYMRVKFEVPGPEVTIHIPMWDSAG [r5_144_TrROS] | 0.765 ± 0.41 kJ/mol
SGMTIEVEKEIEIYDPEKGVKIGSVKVKVLVPTSYSPEEIPEIAEKEIKKAKEELEKPEPPEVNEDGTLKSA [r9_454_JUSTAS] | 1.01 ± 0.669 kJ/mol

Experiment: folding stability dG unfold from trypsin proteolysis; higher = more stable
Experimental: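 Folding stability of de novo designed mini-proteins (<80 aa, no Cys; designed by TrROS, TrMRF, ProteinMPNN and the joint model) was measured by cDNA display proteolysis with trypsin and chymotrypsin. Each protease was used at 11 concentrations in a threefold dilution series plus a no-protease condition. K50 was inferred by Bayesian fitting of sequencing counts, and dG unfold was derived against a sequence-predicted unfolded-state K50 (Tsuboyama et al. method). Sequences shown include variable-length N-terminal GS-type padding (SAGGSAGG...) inside a display construct carrying a PA tag. Rows were kept only if the AF2 dimer inter-PAE was >15, to exclude likely homo-oligomers.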

Sequence | folding stability dG unfold
SAGGSAGGSAGGSMVLYERVPASELPPGKGETLLIREVTVEKLPGNRIILNEGVKVIPPSAGGSAGGSAGGS [r4_444_JUSTAS] | -0.778 ± 0.628 kJ/mol
SAGGSAGGSAGGKVTVEKDKETGKYTVKIVNKKTKKEITVTVPAKDKEKALKKAKELAKSAGGSAGGSAGGS [r10_1117_TrROS_Hall] | -1.46 ± 1.46 kJ/mol
SAGGEVKFEKNEDGTITVTVKAESEEEALEALKKLLEEQGFEIEEIKVERLPNGEVKITIKIKPKKPSAGGS [r8_253_TrROS_Hall] | 15.3 ± 1.67 kJ/mol
SAGSMKTEEKTEEVPPVTLPFGPSVRVRRVTTTITDPSTGKIKEVTVELFDPAGRRRVDPVKKVPVELLSAG [r14_631_JUSTAS] | 3.32 ± 0.544 kJ/mol
SAGGSAGGSAGKTIPIDEEEAKALFKAGNPRTITRLLPDGKTETLTYQPETNEVSVLDPKAPSAGGSAGGSA [r18_400_JUSTAS] | -3.33 ± 2.55 kJ/mol
SAGVEYEVKVEYDPETGTVTAPVTFPDGPEAIVEIEFEEPGRYKMIIRIEEEEKEFEVDPDAIDEITIESAG [r5_14_TrMRF] | -2.3 ± 1.05 kJ/mol
SAGGSAGGSAGGMVLKTETRPGFEGGRAWTVTTTVYPDSVVVTTTPPDGVPTTTTIPPSSSAGGSAGGSAGG [r7_516_JUSTAS] | -0.925 ± 1 kJ/mol
SAGGSAGGSAGGKAVFLKTKTVTRTVTRKTTKNGKEEEVATETVTTVELVEVDLDNGEASAGGSAGGSAGGS [r10_93_TrROS_Hall] | -2.96 ± 1.55 kJ/mol
SAGGSAGGSAGKRKIIFQVDNPEDMLDEIKIPPGGEVKIENIEIQPQPNGRHWAVFEIKDSAGGSAGGSAGG [r11_150_TrROS] | -1.66 ± 1.67 kJ/mol
